# T1: peptide RRRAAAEASAAA
# T1 chain: RRRAAAEASAAA
# T2: peptide RRRAEASAA
# T2 chain: RRRAEASAA
# T3: peptide RRRASAAASAA containing a phosphoserine as the first serine
# T3 chain: RRRASAAASAA
# T4: peptide RRREEESEEE
# T4 chain: RRREEESEEE
# T5: peptide RRREEESGGG
# T5 chain: RRREEESGGG
# T6: rhodopsin in urea treated rod outer segments, P02699
# T6 chain: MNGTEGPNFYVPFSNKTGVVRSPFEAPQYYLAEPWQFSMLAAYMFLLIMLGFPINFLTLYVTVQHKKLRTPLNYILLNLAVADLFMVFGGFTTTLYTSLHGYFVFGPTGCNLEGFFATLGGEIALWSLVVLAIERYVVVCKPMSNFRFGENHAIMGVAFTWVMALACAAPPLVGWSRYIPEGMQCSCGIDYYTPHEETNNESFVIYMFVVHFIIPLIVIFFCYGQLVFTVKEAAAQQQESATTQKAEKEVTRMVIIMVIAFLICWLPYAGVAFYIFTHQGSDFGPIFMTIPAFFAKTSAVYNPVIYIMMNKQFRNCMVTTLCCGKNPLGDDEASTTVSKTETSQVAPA
# What was measured:
# [1] = molecular target: G protein βγ subunits
# [2] = molecular target: casein
# [3] = molecular target: histones
# [4] = molecular target: m2 muscarinic cholinergic receptor
# [5] = molecular target: T1, peptide RRRAAAEASAAA
# [6] = molecular target: T2, peptide RRRAEASAA
# [7] = molecular target: T3, peptide RRRASAAASAA containing a …
# [8] = molecular target: T4, peptide RRREEESEEE
# [9] = molecular target: T5, peptide RRREEESGGG
# [10] = molecular target: phosvitin
# [11] = molecular target: polylysine, a 14-16 amino acid peptide
# [12] = molecular target: T6, rhodopsin in urea treated rod outer …
# [13] = molecular target: β2-adrenergic receptor
protein,measurement,setting,value
G protein-coupled receptor kinase GRK6 (human) (protein) MELENIVANTVLLKAREGGGGNRKGKSKKWRQMLQFPHISQCEELRLSLERDYHSLCERHAIGRLLFREFCATRPELSRCVAFLDGVAEYEVTPDDKRKACGRHVTQNFLSHTGPDLIPEVPRQLVTNCTQRLEQGPCKDLFQELTRLTHEYLSVAPFADYLDSIYFNRFLQWKWLERQPVTKNTFRQYRVLGKGGFGEVCACQVRATGKMYACKKLEKKRIKKRKGEAMALNEKQILEKVNSRFVVSLAYAYETKDALCLVLTLMNGGDLKFHIYHMGQAGFPEARAVFYAAEICCGLEDLHRERIVYRDLKPENILLDDHGHIRISDLGLAVHVPEGQTIKGRVGTVGYMAPEVVKNERYTFSPDWWALGCLLYEMIAGQSPFQQRKKKIKREEVERLVKEVPEEYSERFSPQARSLCSQLLCKDPAERLGCRGGSAREVKEHPLFKKLNFKRLGAGMLEPPFKPDPQAIYCKDVLDIEQFSYVKGVELEPTDQDFYQKFATGSVPIPWQNEMVETECFQELNVFGLDGSVPPDLDWKGQPPAPPKKGLLQRLFSRQDCCGNCSDSEEELPTRL,kinase activation by G protein βγ subunits,[1],it is not activated by G protein βγ subunits
same,protein substrate phosphorylation,[2],GRK6 was able to phosphorylate the acidic proteins casein and phosvitin
same,protein substrate phosphorylation,[3],it was only weakly reactive toward the basic protein substrate histones
same,stimulus dependent receptor phosphorylation,[4],"GRK6 is also able to phosphorylate rhodopsin, β2-adrenergic and m2 muscarinic cholinergic receptors in a stimulus dependent manner, albeit to a significantly lower extent than βARK and GRK5"
same,peptide phosphorylation,[5],but not with the RRRAAAEASAAA (SEQ ID NO: 11) peptide
same,peptide phosphorylation,[6],GRK6 activity was also apparent with the RRRAEASAA (SEQ ID NO: 10) peptide
same,peptide phosphorylation,[7],the same peptide containing a phosphoserine as the first serine is not phosphorylated by GRK6
same,peptide phosphorylation,[8],poorly phosphorylated by GRK6
same,peptide phosphorylation,[9],poorly phosphorylated by GRK6
same,protein substrate phosphorylation,[10],GRK6 was able to phosphorylate the acidic proteins casein and phosvitin
same,fold increase in phosphorylation of rhodopsin,[11],an ˜2.7-fold increase in phosphorylation (optimal range 1 to 10 µM)
same,rhodopsin phosphorylation activity relative to βARK virus infected supernatant,[12],4.7% +/-0.4% that of the βARK virus infected supernatant
same,stimulus dependent receptor phosphorylation,[13],"GRK6 is also able to phosphorylate rhodopsin, β2-adrenergic and m2 muscarinic cholinergic receptors in a stimulus dependent manner, albeit to a significantly lower extent than βARK and GRK5"

# Reference: patent US20020034767
